Data published in US20220290200A1, “GENETICALLY MODIFIED HOST CELLS PRODUCING GLYCOSYLATED CANNABINOIDS” (OCTARINE BIO IVS, priority 2019, published 2022).

Tests used:
[1] = In vitro glycosyl transferase performance, purified enzymes, % conversion of cannabinoids to cannabinoid glycosides; format: biochemical; details: for Conversion % (CBD to the glycoside): acceptor CBD; for % conversion of CBD to OB9 (CBD-1′-O-β-D-xyloside): Table 26; for % conversion of CBDA to OB31 (CBDA-1′-O-β-D-glucoside): Table 37; for % conversion, 11-nor-9-carboxy-THC to OB41 (11-nor-9-carboxy-THC-1′-O-β-D-glucoside): substrate 11-nor-9-carboxy-THC, product OB41; for % conversion, CBG to OB33 (CBG-1′-O-β-D-glucosyl-3′-O-β-D-glucoside): product OB33; for % conversion, CBN to OB23 (CBN-1′-O-β-D-di-glucoside): substrate CBN, product OB23; for % conversion, THC to OB20 (THC-1′-O-β-D-glucoside): substrate THC, product OB20; for % conversion of CBDV to OB24 (CBDV-1′-O-β-D-glucoside): Table 33
Procedure: For in vitro studies of glycosyl transferase performance in glycosylating cannabinoids, purified Glycosyl transferases were prepared as follows:
5 mL of 2× concentrated LB medium+Ampicillin (50 μg/m L) was inoculated with E. coli XJb (DE3) strains expressing a glycosyl transferase of interest and incubated overnight at 30° C. with shaking. The following day, cell cultures were transferred into 500 mL of 2× concentrated LB medium+Ampicillin (50 μg/mL) and incubated overnight at 30° C. with shaking. The following day, the cell cultures were transferred to 1 L of 2× concentrated LB medium+Ampicillin (50 μg/mL)+3 mM arabinose+0.1 mM IPTG. Cells were incubated for 24 h at 20° C. with shaking. The following day, the cells were collected by centrifugation at 46500×g for 10 mins at 4° C. Cells were resuspended in 20 mL ice-cold GT buffer (50 mM Tris-HCl pH7.4+1 mM phenylmethanesulfonyl fluoride+1 cOmplete™, mini, EDTA-free Protease Inhibitor Cocktail tablet (Roche)). The resuspended material was transferred to a 50 mL falcon tube and kept at −80° C. for at least 15 mins. Falcon tubes were then thawed at room temperature, as the tubes were thawing the following reagents were added; 2.6 mM MgCl2, 1 mM CaCl2, 250 μL of a 1.4 mg/ml DNase solution (Sigma) dissolved in MilliQ water. Tubes were gently inverted to mix then were incubated for 5 mins at 37° C. Binding buffer was then added to the tubes (50 mM Tris-HCl pH7.4, 10 mM imidazole, 500 mM NaCl. 11.25 mL MilliQ water) and the pH adjusted to 7.4 with HCl. The mix was centrifuged at 15550×g for 15 mins at 4° C., the supernatant transferred to a fresh 50 mL falcon tubes and centrifuged again to remove any remaining cellular debris at 48400×g for 20 minutes at 4° C. While the enzyme prep was centrifuging, 3 mL of HIS-Select (available from Sigma P6611) column material was added to a fresh 50 mL tube and washed by adding MilliQ water up to 50 mL, centrifuging at 2000×g for 2 mins and discarding the supernatant. This washing step was repeated. Finally, MilliQ water was added to the HIS-Select material to an approximate 50% volume. Collected supernatant from the centrifuged enzyme preparation was transferred to the tube containing the HIS-Select material through a Miracloth (available from Merck Millipore), and then incubated at 4° C. with gently shaking by inversion for 2 h. After 2 h the mix was centrifuged at 2000×g for 4 minutes at 4° C. and the supernatant discarded. The remaining HIS-Select material was washed twice with 1× binding buffer (50 mM Tris-HCl, 0.5M NaCl, 10 mM Imidazole, pH 7.4) with centrifugation at 2000×g for 4 minutes at 4° C. The HIS-Select material was resuspended in 5 mL 1× binding buffer and transferred to a Poly-Prep®Chromatography Column (available from BioRad, 7311550). The HIS-Select material was kept at 4° C. and washed twice with 1× binding buffer by filling up the column and allowing it to drip through. Finally, purified Glycosyl transferases were eluted from the HIS-Select material by adding 7.5 mL of elution buffer (50 mM Tris-HCl, 500 mM Imidazole, pH7.4) and collecting the flow through. Enzymes were used immediately in in vitro enzyme assays or stored at −20° C. in 50% glycerol until needed.
In vitro conversion of various cannabinoids to cannabinoid glycosides was carried out according to table 21. Alkaline phosphatase was provided by New England Biolabs (M0371S). Cannabinoids were dissolved in methanol. The UDP-sugar (e.g. UDP-glucose) was provided by a commercial supplier (e.g. Sigma) or produced by in vitro enzymatic conversion from a commercially available UDP-sugar as shown in Example 21.
The reaction mixture was scaled up or down as required. The reaction mixture was incubated without shaking at 30° C. for 24 hours. Extraction and analysis were performed as described above for this example. […]

[2] = In vitro enzymatic cascade converting sucrose and CBD to CBD glycosides; format: biochemical; details: enzymes added: GmSuSy
Text: In the previous examples, in vitro glycosyl transferase assays required the addition of an “activated” sugar (e.g. UDP-glucose), which is typically an extremely expensive reagent, furthermore, other activated sugars e.g. UDP-rhamnose are not available commercially and must be custom synthesized at high-cost and difficulty. […] To facilitate the low-cost production of cannabinoid glycosides not only with glucose, but with alternative sugars, an enzymatic cascade was set up to convert cannabinoids and the simple sugar sucrose into various cannabinoid glycosides. The cascade is divided into 3 steps, in step 1 sucrose and uridine diphosphate (UDP) is converted to UDP-glucose by GmSuSy (SEQ ID NO: 209, 210), additionally generating fructose as a bi-product. In step 2, UDP-glucose is interconverted to alternative UDP-sugars using a range of enzymes. For example, conversion of UDP-glucose to UDP-galactose by BsGa/E, multiple enzymes can also be used to produce UDP-sugars via other UDP-sugar intermediates. For example, conversion of UDP-glucose to UDP-glucuronic acid by AtUGDH1 combined with conversion of UDP-glucuronic acid to UDP-xylose by AtUXS3. In step 3, glycosyl transferases convert the activated sugar and a cannabinoid acceptor to the corresponding cannabinoid glycoside. For example, conversion of UDP-rhamnose and CBD to CBD-1′-O-β-D-rhamnoside (OB13) by Cs73Y (SEQ ID NO: 157, 158).
Enzymes were purified and the in vitro assay performed as described in Example 13 and the reaction mixture set up as shown in table 57. Enzymes and co-factors were added as required for each individual reaction. Samples were extracted and analyzed as stated above.

[3] = substrate CBG, glycosyl transferase in vitro

| Molecule | % conversion of CBD to OB9 (CBD-1′-O-β-D-xyloside) ([1]; glycosyl transferase in vitro) | % conversion of CBDA to OB31 (CBDA-1′-O-β-D-glucoside) ([1]; glycosyl transferase in vitro) | % conversion, 11-nor-9-carboxy-THC to OB41 (11-nor-9-carboxy-THC-1′-O-β-D-glucoside) ([1]; glycosyl transferase in vitro) | % conversion, CBG to OB33 (CBG-1′-O-β-D-glucosyl-3′-O-β-D-glucoside) [1, 3] | % conversion, CBN to OB23 (CBN-1′-O-β-D-di-glucoside) ([1]; glycosyl transferase in vitro) | % conversion, THC to OB20 (THC-1′-O-β-D-glucoside) ([1]; glycosyl transferase in vitro) | % conversion of CBDV to OB24 (CBDV-1′-O-β-D-glucoside) ([1]; glycosyl transferase in vitro) | further results |
| --- | --- | --- | --- | --- | --- | --- | --- | --- |
| C=C(C)[C@@H]1CCC(C)=C[C@H]1c1c(O[C@@H]2OC[C@@H](O)[C@H](O)[C@H]2O)cc(CCCCC)cc1O[C@@H]1OC[C@@H](O)[C@H](O)[C@H]1O [OB10, CBD-1′-O-β-D-xylosyl-3′-O-β-D-xyloside] |  |  |  |  |  |  |  | Conversion % (CBD to the glycoside) ([1]; UDP-Xylose, enzyme PL-214(Cs73Y_GA)): 97.4%; % Conversion of CBD and sucrose to CBD glycoside ([2]; AtUGDH1, AtUXS3, Cs73Y): 72.3% |
| C=C(C)C1CCC(C)=CC1c1c(O)cc(CCCCC)cc1OC1OC(C)C(O)C(O)C1O [OB13, CBD-1′-O-α-L-rhamnoside] |  |  |  |  |  |  |  | Conversion % (CBD to the glycoside) ([1]; UDP-Rhamnose, enzyme PL-342(Cp73B_GA)): 5.7%; % Conversion of CBD and sucrose to CBD glycoside ([2]; AtRHM2, Cs73Y): 15.2% |
| PL-214(Cs73Y_GA) (protein) MGSEGRQLHIFMFPFMAHGHMIPIVDMAKLFASRGIKITIVTTPLNSISISKSLHNCSPNSLIQLLILKFPAAEAGLPDGCENADSIPSMDLLPKFFEAVSLLQPPFEEALHNNRPDCLISDMFFPWTNDVADRVGIPRLIFHGTSCFSLCSSEFMRLHKPYQHVSSDTEPFTIPYLPGDIKLTKMKLPIFVRENSENEFSKFITKVKESESFCYGVVVNSFYELEAEYVDCYKDVLGRKTWTIGPLSLTNTKTQEITLRGRESAIDEHECLKWLDSQKPNSVVYVCFGSLAKFNSAQLKEIAIGLEASGKKFIWVVRKGKGEEEEEEQNWLPEGYEERMEGTGLIIRGWAPQVLILDHPSVGGFVTHCGWNSTLEGVAAGVPMVTWPVGAEQFYNEKLVTEVLKTGVGVGVQKWAPGVGDFIESEAVEKAIRRIMEKEGEEMRNRAIELGKKAKWAVGEEGSSYSNLDALIEELKSLAF | 6.9% | 98.6% | 2.0% | 100.0% | 98.6% | 29.5% |  | % conversion of CBD to OB13 (CBD-1′-O-α-L- rhamnoside) ([1]; glycosyl transferase in vitro, Table 25): 4.4%; % conversion of CBD to OB6 (CBD-1′-O-β-D-glucosyl-3′-O-β-D-glucoside) ([1]; glycosyl transferase in vitro, Table 27): 95.8%; % conversion of CBD to OB10 (CBD-1′-O-β-D-xylosyl-3′-O-β-D-xyloside) ([1]; glycosyl transferase in vitro, Table 28): 98.5%; % conversion of CBD to OB7 (CBD-1′-O-β-D-tri-glucoside) ([1]; glycosyl transferase in vitro, Table 29): 27.3%; % conversion of CBD to OB8 (CBD-1′-O-β-D-glucosyl-3′-O-β-D-di-glucoside) ([1]; glycosyl transferase in vitro, Table 30): 12.3%; % conversion of CBDV to OB25 (CBDV-1′-O-β-O-glucosyl-3′-O-β-D-glucoside) ([1]; glycosyl transferase in vitro, Table 34): 91.0% |
| PL-28(At72B1_GA) (protein, UniProt Q9M156 1-480, looked up) UDP-glycosyltransferase 72B1: MEESKTPHVAIIPSPGMGHLIPLVEFAKRLVHLHGLTVTFVIAGEGPPSKAQRTVLDSLPSSISSVFLPPVDLTDLSSSTRIESRISLTVTRSNPELRKVFDSFVEGGRLPTALVVDLFGTDAFDVAVEFHVPPYIFYPTTANVLSFFLHLPKLDETVSCEFRELTEPLMLPGCVPVAGKDFLDPAQDRKDDAYKWLLHNTKRYKEAEGILVNTFFELEPNAIKALQEPGLDKPPVYPVGPLVNIGKQEAKQTEESECLKWLDNQPLGSVLYVSFGSGGTLTCEQLNELALGLADSEQRFLWVIRSPSGIANSSYFDSHSQTDPLTFLPPGFLERTKKRGFVIPFWAPQAQVLAHPSTGGFLTHCGWNSTLESVVSGIPLIAWPLYAEQKMNAVLLSEDIRAALRPRAGDDGLVRREEVARVVKGLMEGEEGKGVRNKMKELKEAACRVLKDDGTSTKALSLVALKWKAHKKELEQNGNH |  |  | 0.9% |  |  |  | 9.9% |  |
| PL-182(Ha88B_2_GA) (protein) MESSTVVMYPSPGIGHLVSMVELGKLIHTHHPSLSVIILILTAPYETGATGKYINTVSATTPAITFHHLPAIALPPDFSSEFIDLAFGLPELYNSVVHNTLVAISQKSTIKAVILDFFSNAAFQVSTNLSLPTYYFFTSGTFGLCAFLYLTTLHKTTSKSIKDLNTLLDFPGVPPIHSSHMPTAIFDRESNSYKNFMKTSNNMAKCSGIIVNSFLELEERAVATLRDGKCITDGPTPPIYFIGPLIASGSQVDPNENECLKWLKTQPSKSVVFLCFGSMGVFEKEQLKEIAVGLERSGQRFLWVVRNPPLESSSGAKEFELDDILPEGFLTRTKDKGLVVKNWAPQPAILGHESVGGFVSHCGWNSSLEAVVSGVPMVAWPLYAEQQMNRVYLVEEIKVALWLRMSADGFVGAEAVEETVRKLMEGEEGRAVREQILEMSGGAKAAVEDGGSSRLDFLKLTRPWTDQ | 9.6% | 15.5% |  | 26.5% | 68.0% | 80.3% | 89.0% | % conversion of CBD to OB1 (CBD-1′-O-β-D-glucoside) ([1]; glycosyl transferase in vitro, Table 24): 50.0%; % conversion, CBG to OB32 (CBG-1′-O-β-D-glucoside) ([1]; substrate CBG, product OB32, glycosyl transferase in vitro): 82.9% |
